From patent US8173771B2, “Humanin receptor or humanin-like polypeptide receptor” (Keio Univeristy, priority 2005, dated 2012)

Assays:
Experiment in all cases: In vitro pull-down assay with HN- or HNA-conjugated Sepharose 4B
Format in all cases: binding
CNTF receptor = target: T1, CNTF receptor (Homo sapiens, UniProt P26992); details: lysates of F11 cells overexpressing CNTF-R
T1 construct: V5 (C); host or cells: F11 cells (lysate)
T1 sequence (P26992 23-342): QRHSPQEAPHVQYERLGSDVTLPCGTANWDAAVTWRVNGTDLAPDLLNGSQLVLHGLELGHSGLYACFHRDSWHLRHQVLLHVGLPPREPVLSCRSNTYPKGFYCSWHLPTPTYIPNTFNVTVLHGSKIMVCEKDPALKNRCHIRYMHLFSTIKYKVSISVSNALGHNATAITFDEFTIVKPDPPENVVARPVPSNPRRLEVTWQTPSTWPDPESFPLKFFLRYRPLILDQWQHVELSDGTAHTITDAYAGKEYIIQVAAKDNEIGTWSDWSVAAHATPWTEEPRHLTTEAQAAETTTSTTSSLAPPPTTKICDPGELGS
From the text: (§1) C) The photos show the results of in vitro pull down assay using HN- or HNA-conjugated Sepharose 4B bead. WSX-1, CNTF-R, and […] were over-expressed in F11 cells and the pull down assay was made using the above 4B bead. Immunoblot analysis was done using PO4 antibody against Humanin (lower panes). HN or HNA comprised in the above Sepharose 4B bead was compared with synthesized HN peptide (50 pmol) as a positive control.
(§2) F11 cells (7×10^4/well in 6-well plates) were transfected with the plasmids encoding mycHis-WSX-1, V5-CNTF-R or rat IL-6R (V6 tagged). At 48 hrs after transfection, the cells were harvested for pull-down assays with HN or HNA-conjugated Sepharose 4B. For conjugation of […] or HNA with Sepharose 4B, 3 ml of CNBr-activated Sepharose 4B was incubated with 0.5 mg of HN or HNA in a coupling buffer (0.1M NaHCO3 0.5M NaCl, pH8.3) overnight at 4° C. The beads were then reacted with a blocking buffer (0.2M glycine, pH 8.0) for 2 hrs at a room temperature, washed with the coupling buffer and stored at 4° C. for use in pull-down assay. For each pull-down assay, 20 μl of 1:1 slurry of Sepharose was used for 100 μl of the cell lysate.

IL-6 receptor = target: T2, IL-6 receptor (Rattus norvegicus, UniProt P22273); details: lysates of F11 cells overexpressing IL-6R
T2 construct: V6 (so in the source); probably V5); host or cells: F11 cells (lysate)
T2 sequence (P22273 20-462): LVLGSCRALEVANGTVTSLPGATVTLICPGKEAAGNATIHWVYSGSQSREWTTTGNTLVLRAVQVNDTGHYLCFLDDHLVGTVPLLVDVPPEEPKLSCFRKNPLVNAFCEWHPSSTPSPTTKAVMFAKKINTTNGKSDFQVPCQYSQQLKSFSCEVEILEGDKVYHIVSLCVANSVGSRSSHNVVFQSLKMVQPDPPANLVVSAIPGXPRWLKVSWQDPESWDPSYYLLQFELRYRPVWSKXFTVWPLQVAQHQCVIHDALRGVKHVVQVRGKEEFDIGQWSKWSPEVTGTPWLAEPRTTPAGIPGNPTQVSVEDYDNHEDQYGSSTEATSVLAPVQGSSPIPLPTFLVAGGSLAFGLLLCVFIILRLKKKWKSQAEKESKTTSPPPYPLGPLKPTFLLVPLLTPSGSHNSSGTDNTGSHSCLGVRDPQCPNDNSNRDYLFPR
From the text: as §1, §2

WSX-1 = target: T3, WSX-1 (Homo sapiens, UniProt Q6UWB1); details: lysates of F11 cells overexpressing WSX-1
T3 construct: His; expressed in transfected cells; host or cells: F11 cells (lysate)
T3 sequence (Q6UWB1 33-636): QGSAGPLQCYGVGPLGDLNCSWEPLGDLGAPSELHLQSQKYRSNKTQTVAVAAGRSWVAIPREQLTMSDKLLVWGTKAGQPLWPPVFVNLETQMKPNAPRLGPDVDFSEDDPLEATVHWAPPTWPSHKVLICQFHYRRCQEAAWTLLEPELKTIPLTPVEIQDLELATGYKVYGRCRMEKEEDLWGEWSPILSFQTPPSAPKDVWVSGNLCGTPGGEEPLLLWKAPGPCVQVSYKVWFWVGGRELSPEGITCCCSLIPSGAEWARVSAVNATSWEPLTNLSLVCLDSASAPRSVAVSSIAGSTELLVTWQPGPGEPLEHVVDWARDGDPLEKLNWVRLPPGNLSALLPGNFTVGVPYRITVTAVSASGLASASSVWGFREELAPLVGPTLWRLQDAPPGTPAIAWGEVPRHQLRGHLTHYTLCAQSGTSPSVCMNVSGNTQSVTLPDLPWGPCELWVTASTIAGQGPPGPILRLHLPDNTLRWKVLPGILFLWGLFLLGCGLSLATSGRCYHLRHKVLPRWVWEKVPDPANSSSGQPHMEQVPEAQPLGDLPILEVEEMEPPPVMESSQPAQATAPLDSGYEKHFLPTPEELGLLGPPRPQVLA
From the text: as §1, §2

C8A-Humanin (MAPRGFSALLLLTSEIDLPVKRRA) [HNA]
did not bind: binding in pull-down to CNTF receptor (CNTF receptor) | binding in pull-down to IL-6 receptor (IL-6 receptor) | binding in pull-down to WSX-1 (WSX-1)
